Test results published in the supplement of paper PMC6757056.
± gives the standard deviation of the averaged measurements.

B1: library; a variant is named by its letters at N, in order (parent)
chain: GCUGUCACCGAGAAACUGUGAAGUAUAUCUUAAACCUGGGCACUUAAAAGAUAUAUGGAGUUAGUAGUGCAACCUGCUCGGUCUGAUGAGUCCNNNNNNGGACGAAACAGC

How the values were obtained:
[1] = variants of: B1; assay: FACS-Seq fitted mean relative fluorescence mCherry/BFP without ligand (log10 relative fluorescence); HEK293T; ligand: cyclic di-GMP (c-di-GMP-II aptamer); higher = higher reporter protein expression; settings: ligand present: no
Procedure: (§1)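 Hammerhead (sTRSV) ribozyme switch libraries with a ligand aptamer grafted on stem I and a randomized N4-6 loop II, cloned into the 3' UTR of mCherry and transiently transfected into HEK293T cells; RNA-Seq 72 h post transfection with ligand added 1 h before transfection; RNA read count / plasmid DNA read count normalized to the non-cleaving sTRSVctl (x100), log10; sequences with >100 DNA reads. FACS-Seq: lentiviral library sorted into 6 bins after 48 h ligand, log-normal fit mean of mCherry/BFP scaled to controls. Printed sequences are partial switch sequences.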

[2] = variants of: B1; assay: normalized RNA/DNA level without ligand (relative to sTRSVctl = 100) (log10 (% of sTRSVctl)); HEK293T; ligand: cyclic di-GMP (c-di-GMP-II aptamer); higher = less ribozyme self-cleavage, higher mRNA level; settings: reporter: mCherry (pCS4076), ligand present: no
Procedure: as §1

[3] = variants of: B1; assay: FACS-Seq fitted mean relative fluorescence mCherry/BFP with ligand (log10 relative fluorescence); HEK293T; ligand: cyclic di-GMP (c-di-GMP-II aptamer); ligand concentration (+) FACS-Seq: 1 mM; higher = higher reporter protein expression; settings: ligand present: yes
Procedure: as §1

[4] = variants of: B1; assay: normalized RNA/DNA level with ligand (relative to sTRSVctl = 100) (log10 (% of sTRSVctl)); HEK293T; ligand: cyclic di-GMP (c-di-GMP-II aptamer); ligand concentration (+) RNA-Seq: 1 mM; higher = less ribozyme self-cleavage, higher mRNA level; settings: reporter: mCherry (pCS4076), ligand present: yes
Procedure: as §1

Variant	FACS-Seq fitted mean (log10) [1]	normalized RNA/DNA level without ligand (log10) [2]	FACS-Seq fitted mean (log10) [3]	normalized RNA/DNA level with ligand (log10) [4]
UAAAUU	0.0621 ± 0.17	1.631 ± 0.016	0.394 ± 0.011	1.77 ± 0.11
GACACU	-0.276 ± 0.038	1.705 ± 0.016	-0.141 ± 0.073	1.83 ± 0.12
UACCAU	-0.473 ± 0.0049	1.663 ± 0.0085	-0.0951 ± 0.092	1.8 ± 0.12
AACACU	0.049 ± 0.17	1.68 ± 0.033	0.373 ± 0.032	1.81 ± 0.096
AACACA	-0.289 ± 0.0062	1.54 ± 0.031	-0.0564 ± 0.0031	1.75 ± 0.12
AACAGA	-0.897 ± 0.023	1.39 ± 0.14	-0.683 ± 0.0078	1.59 ± 0.11
AACAGU	-1.23 ± 0.038	1.57 ± 0.076	-1.08 ± 0.027	1.76 ± 0.063
AAAUGA	-0.5596 ± 0.00088	1.43 ± 0.061	-0.289 ± 0.037	1.62 ± 0.089
AAAUGU	-0.132 ± 0.022	1.54 ± 0.03	0.136 ± 0.093	1.78 ± 0.09
AAAUGC	-0.0259 ± 0.11	1.642 ± 0.01	0.294 ± 0.022	1.79 ± 0.09
AAAGUU	-0.298 ± 0.1	1.59 ± 0.068	0.0631 ± 0.068	1.77 ± 0.03
AAAGUC	0.135 ± 0.29	1.574 ± 0.0057	0.392 ± 0.048	1.75 ± 0.1
GACAGA	-0.179 ± 0.21	1.52 ± 0.065	0.0814 ± 0.049	1.7 ± 0.068
AAAAGA	-0.494 ± 0.013	1.36 ± 0.073	-0.116 ± 0.009	1.56 ± 0.14
AAAAGC	0.0679 ± 0.01	1.58 ± 0.045	0.227 ± 0.045	1.73 ± 0.089
AAAAGG	-0.489 ± 0.057	1.49 ± 0.12	-0.254 ± 0.005	1.66 ± 0.093
CACAAA	-0.504 ± 0.031	1.24 ± 0.14	-0.278 ± 0.055	1.46 ± 0.12
GAAGCA	-0.476 ± 0.078	1.8 ± 0.082	-0.329 ± 0.2	1.88 ± 0.15
